Measurements reported in the nanobody polyreactivity screen of Harvey et al. (2022).

Assay: yeast display, Sf9 membrane polyspecificity reagent, FACS + sequencing; frameworks hold sequencing errors
Method in brief: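 Nanobodies from a synthetic yeast display library (Saccharomyces cerevisiae BJ5465), induced 36–48 hours with galactose, were stained 1 hour at 4 °C with 10% biotinylated, detergent-solubilized Sf9 membrane reagent, enriched on streptavidin microbeads, then FACS-sorted. Anti-HA (expression) and streptavidin (reagent binding) fluorescence set low and high (top ~1%) gates. Polyreactivity labels come from the gate of origin. Genes were colony-PCR amplified, MiSeq 2 × 250 sequenced and filtered by CDR length.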

Sequence | polyreactivity (PSR sort gate)
QVQLVESGGGLVQAGGSLRLSCAASGLIFWGYTMGWYRQAPGKEREFVAAISKSAGSTFYADSVKGRFTISRDNAKNTVYLQMNSLKPEDTAVYYCATGGFPGARVAYDYYYWGQGTQVTVSS | low polyreactivity
QVQLVESGGGLQQAGGSLRLSCDASGITFRQYTMGWCRQAPGKERELVAAITSSGRTYYADSVKGRFTISRDNAKNTVYLHMNSLKPEDTAVYYCAAETYYFGYGYWGQGTQVTVSS | high polyreactivity
QVQLVESGGGLVQAGGSLRLSCAASGNTIGVNAMGWYRQAPGKERELVAVITSGGGSTYYADSVKGRFTISRDNAKNTVYLQMNSLKPEDTAVYYCARRSYRLYTLGNGYWGQGTQVTVSS | low polyreactivity
QVQLVESGGGLVQAGGSLRLSCAASGSIFVPNTMGWYRQAPGKERELVAVISRSGGSTNYADSVKGRFTISRDNAKNTVYLQMNSLKPEDTAVYYCNADDGYSVWGYDYWGQGTQVTVSS | low polyreactivity
QVQLVESGGGLVQAGGSLRLSCAASGIIFKNYAMGWYRQAPGKERELVAAISWRGGRTYYADSVKGRFTISRDNAKNTVYLQMNSLIPEDTAVYYCAKELYVSYRGGPWVDYWGQGTQVTVSS | high polyreactivity
QVQLVESGGGLVQAGGSLRLSCAASGSIFHSNAMGWYRQAPGKERELVAAISASGGSTYYADSVKGRFTISRDNAKNTVYLQMNSLKPEDTAVYYCNAVSRYYRFSPYYYWGQGTQVTVSS | high polyreactivity
QVQLVESGGGLVQAGGSLRLSCAASGSTFEDNAMGWYRQAPGKERELVAAITTGGGSTYYADSVKGRFTISRDNAKNTVYLQMNSLKPEDTAVYYCAVYRYYGFSLWYDYWGQGTLVTVSS | low polyreactivity
QVQLVESGGGLVQAGGSLRLSCAASGGIFYYYAMGWYRQAPGKERELVAAISWSGGSTYYADSVKGRFTISRDNAKNTVYLQMNSLKPDDTAVYYCATYSDFHYAQLEYDYWGQGTQVTVSS | low polyreactivity
QVQLVESGVGLVQAGGSLRLSCAASGFIFPYYTMGWYRQAPGKERELVAAISASSGRTYYADSVKGRFTISSDNAKNTVYLQMNSLKPEDTAVYYCAAKTYEPRKYEYWGQGTQVTVSS | high polyreactivity
QVQLVESGGGLVQAGGSLRLSCAASGRTFYPNVMGWYRQAPGKERELVAAITSGGSTYYADSVKGRFTISRDNAKNTVYLQMNSLKPEDTAVYYCAVAYAGGGSRKYDYWGQGTQVTVSS | low polyreactivity
QVQLVESGGGLVQAGGSLRLSCAASGRIFVYYAMGWYRQAPGNERELVAAITSGGTTYYADSVKGRFTISRDNAKNTVYLQMNSLKPEDTAVYYCAKVGRSDLGYDYWGQGTQVTVSS | low polyreactivity
QVQLVESWGGLVQAGGSLRLSCAASGRTFYSNAMGWYRQAPGKERELVAAITSTDDSTYYADSVKGRFTISRDNAKNTVYLQMNSLKPEDTAVYYCNTDGLIAIRGLWWVEYDYWGQGTQVTVSS | low polyreactivity
QVQLVESGGGLVQAGGSLRLSCAASGFIFRYYAMGWYRQAPGKEREFVAGITGTGGSTYYADSVKGRFTISRDNAKNTVYLQMNSLKPEDTAVYYCAADLWYFSSRVRYGYWGQGTQVTVSS | high polyreactivity
QVQLVESGGGLVQAGGSLRLSCAASGFISPNAMGWYRQAPGKERELVAAISRSGGSTYYADSVKGRFTISRDNAKNTVYLQMNSLKTEDTAVYYCAAGRLYSYRRQYGYWGQGTQVTVSS | high polyreactivity
QVQLVESGGGLVQAGGSLRLSCPASGSIFSLNAMGWYRQAPGKERELVAGISWSGGSTYYADSVKGRFTISRDNAKNTVYLQMNSLKPEDTAVYYCAARRYYPYISSGPYYYWGQGTQVTVSS | high polyreactivity
QVQLVESGGGLVQAGGSLRLSCAASGSISSYAMGWSRQAPGKERELVASITWHGGGTYYADSVKGRFTISRDNAKNTVYLQMNSLKPEDTAVYYCAKDNYLDPPYFYRFAGYDYCGQGTQVTVSS | low polyreactivity
QVQLVESGGGLVQAGGSLRLSCAPSGRTFYYYAMGWYRQAPGKERELVAAISRGSTYYADSVKGRFTISRDNAKNTVYLQMNSLKPEDTAVYYCAARYHNYWNRYIYDYWGQGTQVTVSS | high polyreactivity
QVQLVESGGGLVQAGGSLRLSCAASGLIFVANTMGWYRQATGKERELVAAITSDGGSTSYADSVKGRFTISRDNAKNTVYLQMNSLKPEDTAVYHCAAEYGGSSAKYGYWGQGTQVTVSS | low polyreactivity
QVQLVESWGGLVQAGGSLRLSCDASGSIFVSNAMGWYRQAPGKERELVAAISRGGVNTNYADSVKGRFTISRDNAKNTVYLQMNSLKQEDTAVYYCAAKWSHVRDGPKYDYCGQGTQVTVSS | low polyreactivity
QVQLVESGGALVQAGGSLRLSCAASGRTFVSYVMGWYRQAPGKEREMVAAISGNGGRTYYADSVKGRFTISRDYAKKTVYLQMNSLKPEDTAVFYCAAELFVSYFDVLMYYWGQGTQVTVSS | high polyreactivity
QVQLVESGGGLVQAGGSLRLSCAASGRIFDYNGMGWYRQAPGKERELVAAIRLSDGSTYYADSVKGRFTISRDNAKNTVYLQMNSQKPEDTAVYYCADVGKNRSWYDYWGQGSQVTVSS | high polyreactivity
QVQLVESGGGLVQAGGSLRLICAASGSTFYYYTRVWYRQAPGKERELVAAISYGGSSTYYADSVKGRFTISRDNAKNSVYLQMNSLKPEDTAVYYCAAEYDWSYWLSYDYWGQGTLVTVSS | low polyreactivity

Sequence | polyreactivity (PSR sort gate)
QVQLVESGGGLVQAGGSLRLSCAASGSISGYNAMGWYRQAPGQERELVAAIYRSDGTDYADSVKGRFTISRDNAKNTVYLQMNSLNPEDTAVYYCNADKWSVVGYVRGFYRDDYWGQGTQVTVSS | low polyreactivity
QVQLVESGGGLVQAGGSLRLSCAASGSTFRKYAMGWYRQAPGKEREFVAAITWSTGTTYYADSVKGRFTISRDNAQNTVYLQMNSLKPEDTAVYYCSADSKPPHELYESIEHESWGQGTQVTVSA | low polyreactivity
QVQLVESGGGLVQAGGSLRLSCAASGSTFESYAMVWYRQAPGKERELVAAISRRGGRTYYADSVKGRFTISRDNAKNTVYLQMNSLKPEDTAVYYCATDSSYYGSDDYWGQGTQVTVSS | high polyreactivity
QVQLVESGGGLVQAGGSLRLSCAASGRIFARYAMGWYRQAPGKETELVAAISRGGSTKYADSVKGRFTISRDNAKNTVYLQMNSLNPVDTAVYYCARQLWGSPYGAYYAGDYWGQGTQVTVSS | low polyreactivity
QVQLVESGGGLVQAGGSLRLSCAASGSIFNLYAMGWYRQAPGKERELVAAISRSGGSTYYADSVKGRFTISRDNAKNTVYLQMNSLKPEDTAVYYCAARYNWRYDIFDYWGQGTQVTVSS | high polyreactivity
QVQLVESGGGLVQAGRSLRLNCAASGSIFYYYAMGWYRPAPGKERELVAAISRNGGSTSYADSVKGRFTISRDNAKNTVYLQMNSLKPEDTAVYYCNTYGGYKYDYWGQGTQVTVSS | low polyreactivity
QVQHVESGGGLVQAGGSLRLSCAASGIYYNAMGWYRQAPGKERELVAVITYSGGSTYYADSVKGRFTISRDNAKNTVYLQMNSLKPEETAVYYCAADDYYVALPGLYDYWGQGTQVTVSS | low polyreactivity
QVQLVESGGALVQAGGSLRLTCAYSGSTSYNNAMGWYRHAPGKERELYASLYMSAGSTYYADSVKGRFKISRDNEKNTVYLQMNSLKPEDTAVYYCAAESVAILGLVDPKGYGYWGQGTQVTVSS | low polyreactivity
QVQLVESGGGLLQAGGSLRLSCAASGSTFDSYAMGWYRQAPGKERELVAAITNGGSTYYADSVKGRFTISRDNAKNTVYLQMNSLKPEDTAVYYCATDDYLLDYLYDYWGQGTQVTVSS | low polyreactivity
QVQLVESRGGLVQAGGSHRLSCAASGITILQYAMGWYRQAPRKERELVAAISRRGGNTYYADSVKGRFTISRDNAKNTVYLQMNSLKPEDTAVYYCAALSSFQSEYDYWGQGTQLTVSS | high polyreactivity
QVQLVESGGGLVQAGGSLRLSCAASGSIFYVNVMGWYRQAPGKERELVATISSGDTNYADSVKGRFTISRDNAKNTVYLQMNSLKPEDTAVYYCARRRTIPYTLVDYDSWGQGTQVTVSS | low polyreactivity
HVQLVESGGGLVQAAGSLRLSCAASGSTFYRYAMGWYRQAPVKERELVAAITRGGGRTYYADSVKGRFTISRDNAKNTVYLQMNSLKPEDTAVFYCNAASPYYDSWGQGTQVTVSS | high polyreactivity
QVQLEESGGGLVQAGGSLRLSCAASGSTFDRYGMGWYRQAHWKERELVAAINSGDITNYADSVKGRFTISRDNAKNTVYLQMNSLKPEDTAVYYCAATQSRYYSDDPYYYWGQGTQVTVSS | low polyreactivity
QVQLVESGGGLVQAGGSLRLSCAASGIIILWNAMGWDRQAPGKERELVATISWTDGSTSYADSVKGRFTISRDNAKNTVYLQMNSLKPEDTAVYYCNVRHKSYRKSDYWGQGTQVTVSS | low polyreactivity
QVQLVESGGGLVQAGGSLRLSCASSGRTFLRYTMGWYRQAPGKERELVAAISYRGGTTYYADSVKGRFTISRDNGKNTVYLEMNSMKADETGVYYCAARNVGRTGSDFWGQGTQVTVSS | low polyreactivity
QVQLVESGGGLVQAGGSLRLSCAASGRTFDGYAMGWSRQAPGKERELVAAINRSGGNTYYADSVKGRFTISRDNAKNTVYLQMNSLNPVDTAVYYCAADGWTSIGVPDYQHDYWGQGTQVTVSS | high polyreactivity
QVQLVESGGALVQAGGSLRLTCAASGRIYTRYAMGWNRKATGKERELVAVITRSGGSTYYADSVKGRFTISRDNGKNTVYLQMNSLNPEVTAVYDCAAKYYGEMYYWGQGTQVTVSS | low polyreactivity
QVQLVESGGGLVQAGGSLRLSCAASGSIFTFYAMRWYRQAPGKERELVATINRIGGNRYYADSVKGRFTISRDNAKNTVYLQMNSLKPEDTAGYYCAAKPTYRGYGYGSWGQGTQVNVSS | low polyreactivity
QVQLVESGGGLVQAGGSLRLSCAASGRTFRLYAMGWYRQAPGKERELVAAISWRGGRTYYADSVKGRFTISRDNAKNTVYLQMNSLKPEDTAVYYCAAEDGYGQYDYWGQGTQVTVSS | high polyreactivity
QVHLVESGGGLVQAGGSLRLSCAASALTDGRYAMGWYRQAPGKERELVADIRYRAGSTNYADSVKGRFTISRDNAKNTVYLQMNSLKPEDTAVYYCAKGHPNDFGYWGQGTQVTVSS | high polyreactivity
QDQLVESGGGLVQAGGSLRLSCDASGSTFYRYDMGRSRQAPGKERELFAAINQSGDSTYYADSVKGRFTISRDKAKNTVYLQMNSLKPEDTAVYYCAAVRSRYLAFYYWGQCTQVTVSS | low polyreactivity
